Measured values published in the supplement of paper PMC7877785.
± gives the uncertainty stated by the source.

Test: self-splicing fitness, log relative to wild type (ln ratio); higher = more splicing; Tetrahymena group I intron in knt gene, E. coli kanamycin selection, DiMSum; sequences stand for … in CUCUCU…GGAGGGAAAAGUUAUCAGGCAUGCACCUGGUAGCUAGUCUUUAAACCAAUAGAUUGCAUCGGUUUAAAAGGCAAGACCGUCAAAUUGCGGGAAAGGGGUCAACAGCCGUUCAGUACCAAGUCUCAGGGGAAACUUUGAGAUGGCCUUGCAAAGGGUAUGGUAAUAAGCUGACGGACAUGGUCCUAACCACGCAGCCAAGUCCUAAGUCAACAGAUCUUCUGUUGAUAUGGAUGCAGUUCACAGACUAAAUGUCGGUCGGGGAAGAUGUAUUCUUCUCAUAAGAUAUAGUCGGACCUCUCCUUAAUGGGAGCUAGCGGAUGAAGUGAUGCAACACUGGAGCCGCUGGGAACUAAUUUGUAUGCGAAAGUAUAUUGAUUAGUUUUGGAGUACUCGUGGUCG
Summary of the method: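 Six replicate transformations of E. coli BL21(DE3) with a pET-22b(+) library were grown overnight at 37°C or 30°C. The library randomised all eight P1ex-region intron nucleotides, the intron lying in the knt kanamycin-resistance gene, and plates were LB agar with or without 25 μg/mL kanamycin plus 100 μg/mL carbenicillin, 50 μM IPTG and 0.2% rhamnose. Pooled colonies were amplicon-sequenced on an Illumina HiSeq 2500, and fitness is the DiMSum error-weighted combination of wild-type-normalised replicate fold changes, kanamycin versus none.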

| Sequence | self-splicing fitness (ln) (30 °C) | self-splicing fitness (ln) (37 °C) |
| --- | --- | --- |
| CGUUAGCAAUAUUACGGGCA | -0.756 ± 0.15 | -1.2 ± 0.11 |
| GAAGAGCAAUAUUACGUCGA | -1.47 ± 0.21 | -1.76 ± 0.31 |
| AAUGAGCAAUAUUACGCCCA | -2.56 ± 0.3 | -1.75 ± 0.32 |
| ACGAAGCAAUAUUACGAGUG | -2.77 ± 0.1 | -2.29 ± 0.11 |
| GUCGAGCAAUAUUACGCUUG |  | -2.36 ± 0.33 |
| GCCAAGCAAUAUUACGAUAC | -2.45 ± 0.17 | -0.963 ± 0.14 |
| UCUCAGCAAUAUUACGUUCG | -3.46 ± 0.2 | -2.28 ± 0.25 |
| UUGAAGCAAUAUUACGUAUG | -0.752 ± 0.079 | -0.391 ± 0.11 |
| CCUAAGCAAUAUUACGAAUU | -3.89 ± 0.22 | -1.79 ± 0.21 |
| UCUAAGCAAUAUUACGAAUG | -1.16 ± 0.095 | -0.995 ± 0.12 |
| GGCAAGCAAUAUUACGCAAU | -1.03 ± 0.097 | 0.802 ± 0.11 |
| CAAGAGCAAUAUUACGCUUA | -2.23 ± 0.17 | -0.92 ± 0.15 |
| GCACAGCAAUAUUACGUGCC | -5.1 ± 0.29 |  |
| GCACAGCAAUAUUACGUGCG | -2.65 ± 0.066 | -1.12 ± 0.066 |
| GACGAGCAAUAUUACGCUCU | -3.92 ± 0.27 | -1.64 ± 0.32 |
| AAGAAGCAAUAUUACGAGCU | -0.998 ± 0.087 | -1.22 ± 0.11 |
| GAGGAGCAAUAUUACGGGUC | -2.98 ± 0.17 | -3.24 ± 0.32 |
| GCAGAGCAAUAUUACGCACU |  | -3.43 ± 0.43 |
| UCUAAGCAAUAUUACGCUGA | -3.56 ± 0.41 | -2.52 ± 0.33 |
| UACUAGCAAUAUUACGAUGU | -3.42 ± 0.27 | -1.74 ± 0.22 |
| AGUGAGCAAUAUUACGAAAU |  | -2.07 ± 0.39 |
| UCUCAGCAAUAUUACGUUGU | -3.71 ± 0.21 | -3.39 ± 0.21 |
| CCGGAGCAAUAUUACGUCAG | -1.42 ± 0.12 | -1.17 ± 0.15 |
| UUCUAGCAAUAUUACGCCAA | -1.75 ± 0.21 | -0.272 ± 0.2 |
| UAAGAGCAAUAUUACGUCCA | -3.08 ± 0.34 | -2.4 ± 0.41 |

| Sequence | self-splicing fitness (ln) (30 °C) | self-splicing fitness (ln) (37 °C) |
| --- | --- | --- |
| CGCUAGCAAUAUUACGACUG | -0.448 ± 0.05 | 0.456 ± 0.068 |
| ACUCAGCAAUAUUACGUGGA | -1.96 ± 0.078 | -1.54 ± 0.082 |
| UAGGAGCAAUAUUACGUGUA | -2.02 ± 0.13 | -1.63 ± 0.12 |
| CUCCAGCAAUAUUACGUAAC | -3.3 ± 0.13 | -3.08 ± 0.2 |
| CCGAAGCAAUAUUACGCACG | -1.19 ± 0.074 | -0.509 ± 0.092 |
| ACACAGCAAUAUUACGUAGA | -3.64 ± 0.16 | -1.38 ± 0.11 |
| GAUCAGCAAUAUUACGCGAU | -3.92 ± 0.21 | -2.6 ± 0.2 |
| CGCCAGCAAUAUUACGUAUA | -4.14 ± 0.23 | -3.42 ± 0.23 |
| CAUUAGCAAUAUUACGUGGC | -2.79 ± 0.36 | -2.09 ± 0.33 |
| GCAAAGCAAUAUUACGGUCG | -1.62 ± 0.089 | -0.369 ± 0.11 |
| UGAAAGCAAUAUUACGUUCU | -1.37 ± 0.11 | -0.484 ± 0.1 |
| AGGCAGCAAUAUUACGUAGU | -3.18 ± 0.12 | -1.75 ± 0.11 |
| CGCUAGCAAUAUUACGGGUG | -3.31 ± 0.12 | -2.83 ± 0.13 |
| CUUUAGCAAUAUUACGUGGC |  | -2.47 ± 0.44 |
| AGAAAGCAAUAUUACGCUCC | -1.89 ± 0.23 | -1.19 ± 0.24 |
| AUCAAGCAAUAUUACGAGGG | -2.85 ± 0.19 | -1.39 ± 0.19 |
| GAAGAGCAAUAUUACGCUGG | -1.92 ± 0.24 |  |
| AUGGAGCAAUAUUACGAGAG |  | -2.04 ± 0.23 |
| UCGCAGCAAUAUUACGUAAG | -1.4 ± 0.099 | -1.12 ± 0.11 |
| UGCCAGCAAUAUUACGAUAC | -3.95 ± 0.25 | -2.29 ± 0.25 |
| GGAAAGCAAUAUUACGGGCA | -1.2 ± 0.14 | -1.15 ± 0.18 |
| GCUUAGCAAUAUUACGACAA | -1.02 ± 0.14 | -0.462 ± 0.19 |
| AGCGAGCAAUAUUACGGUCG | -2.52 ± 0.12 | -1.86 ± 0.13 |
| CCAAAGCAAUAUUACGCGAG | -2.62 ± 0.098 | -1.42 ± 0.094 |
| CUCAAGCAAUAUUACGCAGA | -3.06 ± 0.5 | -2.41 ± 0.21 |

| Sequence | self-splicing fitness (ln) (30 °C) | self-splicing fitness (ln) (37 °C) |
| --- | --- | --- |
| UUUAAGCAAUAUUACGGAUU | -2.78 ± 0.2 | -1.07 ± 0.2 |
| AACGAGCAAUAUUACGGUCC |  | -1.13 ± 0.31 |
| AGUAAGCAAUAUUACGGCCG | -0.888 ± 0.11 | -0.63 ± 0.18 |
| CGAAAGCAAUAUUACGGACC | -0.938 ± 0.11 | 0.398 ± 0.13 |
| GGCAAGCAAUAUUACGCUCU | -2.51 ± 0.17 | -1.96 ± 0.18 |
| GACGAGCAAUAUUACGAGCA | -3.31 ± 0.35 | -2.65 ± 0.3 |
| AUUCAGCAAUAUUACGGUCC | -1.46 ± 0.11 | -0.22 ± 0.12 |
| GAAUAGCAAUAUUACGGUAC | -1.1 ± 0.13 | -0.802 ± 0.2 |
| GUUUAGCAAUAUUACGAAGA |  | -0.651 ± 0.34 |
| UACAAGCAAUAUUACGGACA | -0.516 ± 0.087 | 0.0805 ± 0.083 |
| AAGUAGCAAUAUUACGAGAU | -2.66 ± 0.16 | -1.34 ± 0.15 |
| AGCCAGCAAUAUUACGAUUC | -2.67 ± 0.22 | -2.49 ± 0.3 |
| GAAGAGCAAUAUUACGUGGG | -3.22 ± 0.16 | -3.05 ± 0.2 |
| AGUAAGCAAUAUUACGAUCA | 0.197 ± 0.16 | -0.44 ± 0.15 |
| AUGAAGCAAUAUUACGAUAG | -4.07 ± 0.39 | -2.33 ± 0.32 |
| GCACAGCAAUAUUACGCCAG | -1.99 ± 0.25 | -2.06 ± 0.26 |
| GCCGAGCAAUAUUACGGGCG | -1.18 ± 0.17 | -0.688 ± 0.18 |
| AGAAAGCAAUAUUACGUUCU | -2.72 ± 0.15 | -1.41 ± 0.14 |
| CAAUAGCAAUAUUACGACGG | -0.109 ± 0.076 | 0.524 ± 0.1 |
| GUGUAGCAAUAUUACGGUGG | -3.98 ± 0.35 | -3.36 ± 0.31 |
| AUCGAGCAAUAUUACGAAUG |  | -2.06 ± 0.28 |
| AAGAAGCAAUAUUACGCCGU | -1.1 ± 0.13 | -0.777 ± 0.15 |
| GUACAGCAAUAUUACGAGCC | -1.6 ± 0.36 | -2.01 ± 0.46 |
| UCGCAGCAAUAUUACGAGCU | -3.14 ± 0.39 | -2.22 ± 0.26 |
| AGUCAGCAAUAUUACGAUAC | -1.69 ± 0.12 | -0.336 ± 0.11 |

| Sequence | self-splicing fitness (ln) (30 °C) | self-splicing fitness (ln) (37 °C) |
| --- | --- | --- |
| GAAUAGCAAUAUUACGGGUA | -2.2 ± 0.19 | -1.2 ± 0.14 |
| CAUAAGCAAUAUUACGCAGU | -3.05 ± 0.23 | -0.865 ± 0.13 |
| UGCUAGCAAUAUUACGCCUU | -2.68 ± 0.23 | 0.255 ± 0.17 |
| GAAGAGCAAUAUUACGUAUC | -3.42 ± 0.21 | -3.41 ± 0.22 |
| GAAUAGCAAUAUUACGUACC | -0.757 ± 0.19 | -0.37 ± 0.3 |
| ACGCAGCAAUAUUACGACCG | -0.348 ± 0.15 | -0.0722 ± 0.19 |
| UCCGAGCAAUAUUACGAACG | -1.82 ± 0.37 | -1.06 ± 0.22 |
| UGUUAGCAAUAUUACGAACG | -0.101 ± 0.092 | -0.499 ± 0.11 |
| UACGAGCAAUAUUACGCGAA | -2.89 ± 0.32 | -2.72 ± 0.26 |
| UCAUAGCAAUAUUACGCAGA | -2.93 ± 0.34 | -2.7 ± 0.24 |
| UCCGAGCAAUAUUACGAUCU | -3.46 ± 0.35 | -2.61 ± 0.39 |
| AUAUAGCAAUAUUACGUAUC | -3.41 ± 0.3 | -1.92 ± 0.35 |
| UUCGAGCAAUAUUACGGAGU |  | -2.26 ± 0.32 |
| GUGAAGCAAUAUUACGCUAA | -1.25 ± 0.15 | -0.0384 ± 0.17 |
| UAUGAGCAAUAUUACGGCCG | -1.33 ± 0.36 | -1.01 ± 0.35 |
| GAAUAGCAAUAUUACGUAAU | -2.99 ± 0.13 | -0.789 ± 0.11 |
| CAACAGCAAUAUUACGGUCC | -2.56 ± 0.17 | -1.22 ± 0.16 |
| GACAAGCAAUAUUACGGCCG | -0.239 ± 0.14 | -0.53 ± 0.22 |
| GUACAGCAAUAUUACGCUUA | -1.58 ± 0.08 | -1.03 ± 0.091 |
| CAGGAGCAAUAUUACGUGGC |  | -1.5 ± 0.38 |
| GGAAAGCAAUAUUACGUUAG | -3.14 ± 0.16 | -1.9 ± 0.15 |
| AGGGAGCAAUAUUACGCUUG | -1.95 ± 0.27 |  |
| CAGUAGCAAUAUUACGCGAG | -2.01 ± 0.16 | -0.736 ± 0.12 |
| AGGUAGCAAUAUUACGUGCA | -0.829 ± 0.014 | -0.279 ± 0.033 |
